According to patent US6051373, “Methods for screening for inhibitors of the transcription-enhancing activity of the X protein of hepatitis B virus” (Scriptgen Pharmaceuticals, Inc.):

T1: ATF-2 (GST fusion) (UniProt P15336 P15336:144-505)
T1 sequence: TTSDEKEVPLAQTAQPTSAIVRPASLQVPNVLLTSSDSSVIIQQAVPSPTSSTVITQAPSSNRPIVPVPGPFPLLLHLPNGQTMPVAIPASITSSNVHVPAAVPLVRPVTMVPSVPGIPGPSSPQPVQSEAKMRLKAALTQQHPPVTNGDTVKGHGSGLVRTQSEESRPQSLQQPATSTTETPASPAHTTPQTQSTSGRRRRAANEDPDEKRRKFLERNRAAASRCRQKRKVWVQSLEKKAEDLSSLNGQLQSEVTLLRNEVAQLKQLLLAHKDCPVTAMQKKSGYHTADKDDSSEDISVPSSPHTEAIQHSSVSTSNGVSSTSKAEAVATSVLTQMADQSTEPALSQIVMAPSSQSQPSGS

T2: ATF-1 (GST fusion) (UniProt P18846 P18846:57-271)
T2 sequence: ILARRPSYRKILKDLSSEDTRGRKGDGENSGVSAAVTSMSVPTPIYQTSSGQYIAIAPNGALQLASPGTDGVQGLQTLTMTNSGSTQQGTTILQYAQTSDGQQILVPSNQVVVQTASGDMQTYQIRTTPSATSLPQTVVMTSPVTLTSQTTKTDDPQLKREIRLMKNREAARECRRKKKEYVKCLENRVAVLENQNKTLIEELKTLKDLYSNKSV

T3: BR-CC (GCN4 basic region with idealized leucine zipper) (Saccharomyces cerevisiae)
T3 chain: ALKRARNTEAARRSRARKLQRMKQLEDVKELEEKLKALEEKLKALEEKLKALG

B1: CRE core oligoduplex (dsDNA)
DNA 1: TCCTAAGTGACGTCAGTGGAA
DNA 2: TTCCACTGACGTCACTTAGGA
B2: collagenase TRE oligoduplex (dsDNA)
DNA 1: AGCTTTGACTCATCCCGGA
DNA 2: TCCGGGATGAGTCAAAGCT

Tests used:
CREB (GST fusion) = CREB (GST fusion) (UniProt P16220-1 P16220-1:23-341); assay: EMSA; low binding without pX, greatly increased by 100 ng pX; conditions: tags: GST (pGEX-2T); chain copies: 2; label: 32P
Chain of CREB (GST fusion) (P16220 other isoform, or with tags, fused parts or gaps): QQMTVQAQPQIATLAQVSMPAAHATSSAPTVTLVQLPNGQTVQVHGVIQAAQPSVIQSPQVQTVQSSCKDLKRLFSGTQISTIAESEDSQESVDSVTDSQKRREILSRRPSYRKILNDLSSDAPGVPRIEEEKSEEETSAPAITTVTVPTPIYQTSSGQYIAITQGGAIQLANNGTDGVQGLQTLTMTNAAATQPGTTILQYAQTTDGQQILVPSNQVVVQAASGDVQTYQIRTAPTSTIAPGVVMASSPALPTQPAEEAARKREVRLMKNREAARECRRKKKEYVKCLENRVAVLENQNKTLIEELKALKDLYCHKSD

ATF-2 (GST fusion) = target: T1, ATF-2 (GST fusion); assay: EMSA; low binding without pX, greatly increased by pX; conditions: tags: GST (pGEX-2T); chain copies: 2; label: 32P
ATF-1 (GST fusion) = target: T2, ATF-1 (GST fusion); assay: EMSA; low binding without pX, greatly increased by pX; TFIIB or E. coli extract no effect; conditions: tags: GST (pGEX-2T); chain copies: 2; label: 32P
pX = pX (Hepatitis B virus, UniProt P03165 P03165:1-154); assay: EMSA; no detectable interaction of pX with DNA without transcription factor; conditions: tags: His (pRSET-C); label: 32P
Chain of pX (P03165 whole entry, one chain of several): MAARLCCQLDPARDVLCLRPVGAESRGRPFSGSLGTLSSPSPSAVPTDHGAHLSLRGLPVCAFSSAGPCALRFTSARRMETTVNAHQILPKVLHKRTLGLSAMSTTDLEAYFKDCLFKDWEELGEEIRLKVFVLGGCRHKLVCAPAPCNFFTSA

[1] = target: T3, BR-CC (GCN4 basic region with idealized …); assay: EMSA; stimulated by pX; conditions: protein: synthetic; tags: synthetic peptide; chain copies: 2; label: 32P
ZTA minimal bZIP = ZTA minimal bZIP (Epstein-Barr virus, UniProt P03206 P03206:175-229); assay: EMSA; stimulated by pX; conditions: chain copies: 2; label: 32P
Chain of ZTA minimal bZIP (P03206 175-229, one chain of several): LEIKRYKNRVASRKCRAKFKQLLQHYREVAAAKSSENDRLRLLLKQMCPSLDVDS

GCN4 minimal bZIP = GCN4 minimal bZIP (Saccharomyces cerevisiae, UniProt P03069 P03069:228-281); assay: EMSA; enhanced by pX; conditions: protein: synthetic; tags: synthetic peptide per text; chain copies: 2; label: 32P
Chain of GCN4 minimal bZIP (P03069 228-281, one chain of several): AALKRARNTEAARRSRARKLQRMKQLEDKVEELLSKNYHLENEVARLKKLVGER

| Binder | binding result (CREB (GST fusion)) | binding result (ATF-2 (GST fusion)) | binding result (ATF-1 (GST fusion)) | binding result (pX) | binding result [1] | binding result (ZTA minimal bZIP) | binding result (GCN4 minimal bZIP) |
| --- | --- | --- | --- | --- | --- | --- | --- |
| B1 | binds | binds | binds | no binding |  |  |  |
| B2 |  |  |  |  | binds | binds | binds |
